Experimental data: article PMC3956076

Substrate: Nc1ncnc2c1ncn2[C@@H]1O[C@H](COP(=O)(O)OP(=O)(O)OP(=O)(O)OP(=O)(O)OC[C@H]2O[C@@H](n3cnc4c(N)ncnc43)[C@H](O)[C@@H]2O)[C@@H](O)[C@H]1O
Experiment: luciferase bioluminescence assay of liberated ATP
Format: biochemical, Chlamydia trachomatis
Settings: 5.0 mM MgCl2, 100 mM Tris-HCl pH 7.5, room temperature

B1: CT771 (Chlamydia trachomatis L2/434/Bu) (protein)
chain: MMKTKHEYSFGVIPIRFFGTPDRSTLKACFICHTDGKHWGFPKGHAEEKEGPQEAAERELVEETGLGIVNFFPKIFVENYSFNDKEEIFVRKEVTYFLAEVKGEVHADPDEICDVQWLSFQEGLRLLNFPEIRNIVTEADKFVQSYLFAS
For B1, the Km was 333 ± 27 µM and the kcat was 3.25 ± 0.1 s⁻¹.
